# Experiments:
# [1] = Biodistribution and whole body retention of 153Gd-labeled dendrimer-1B4M-Gd conjugates; format: in vivo, nude mice; settings: for cleared from the body within 15 min after injection / excretion from the body, rank among conjugates: mouse, in vivo
# Procedure: Radioactive dendrimer conjugates used for biodistribution studies were prepared as follows. ^153GdCl3 containing no other stable isotope of Gd (III) was purchased from NEN DuPont (Boston, Mass.). Approximately 1,500 μg of each dendrimer (containing 2 μmol of 1B4M) was reacted with 1.11 MBq (30 μCi) of ^153Gd citrate (46 pmol) in 0.3 M citrate buffer at pH 5 for 30 min at room temperature. The preparation was then mixed with a 3-fold molar excess of non-radiolabeled Gd(III) citrate (6 μmol) to conjugate 1B4M to fully saturate the chelating groups with Gd(III). This reaction was incubated for 30 min before the addition of ethylenediaminetetraacetic acid (EDTA) and subsequent column purification. To remove any non-incorporated free metal, 10 μl of 0.5 M EDTA (Sigma, St. Louis, Mo.) was added to minimized formation of Gd(OH)3 precipitate. The product was purified using a PD-10 column (Pharmacia, Uppsala, Sweden), eluting with PBS, (pH 7.4). The radio-purity of each preparation was analyzed by size-exclusion HPLC using a TSK G3000SW column (TosoHaas, Philadelphia, Pa.; 0.1 M PBS; 0.01 M KCl; pH 7.4; 1 ml/min). DTPA (Sigma) was also labeled with ^153Gd in 0.3-M citrate buffer for 30 min at room temperature. The radiolabeling yields of all preparations ranged from 47% to 55%. The radio-purity of all preparations analyzed by size-exclusion HPLC was greater than 97%.
# Seven groups of nude mice (n=4 in each group) were injected with 37 kBq (1 μCi)/200 μl of ^153Gd-labeled dendrimer-1B4M-Gd conjugates or ^153Gd-DTPA. The injected samples were added to non-radioactive preparations and the total gadolinium dose was adjusted to 0.02 mmol Gd/kg, 20% of the dose of Gd-[DTPA]-dimeglumine routinely used clinically. The mice were sacrificed 15 min after the injection of the ^153Gd-labeled preparations and biodistribution studies were performed. The data were expressed as the percentage of the injected dose per gram (% ID/g) of tissue. The carcasses of the mice were also counted to calculate the whole body retention (% ID).
# [2] = in vivo; cited from earlier work
# kidneys of mice = assay: Serial dynamic high-resolution MR imaging of the kidneys of mice; format: in vivo
# Procedure: The mice were anesthetized with 1.15 mg of sodium pentobarbital (Dainabot, Osaka, Japan) and placed in the center of the coils. The fast spoiled gradient echo technique ([…] 71; flip angle 30°; scan time 3'07''; phase encoding steps 512×256; 2 number of excitations; slab thickness 16) with fat-suppression technique and serial 3D data acquisition was used to acquire images every 3.1 min from 0 (immediately after injection) to 12 min after injection of the contrast agents for all mice studied. The coronal images were reconstructed with 0.6-mm thick sections with a 0.3-mm overlap reconstruction. The field of view was 6×3 cm and the size of the matrix was 512×256. The reproducibility of the experiments (two mice in each group) was confirmed by repeating the experiments under the same conditions using a different 1.5-tesla superconductive MRI instrument (Signa Horizon, GE).
# [3] = mice; cited from earlier work
# [4] = Contrast-enhanced dynamic whole body 3D-micro-MRI of mice; format: in vivo, nude mice; settings: 0.03 mmol Gd/kg, all times up to 15 min
# Procedure: To evaluate the whole body pharmacokinetics of the contrast agents, seven groups of 8-week-old female nude mice (n=4 in each group) (NCI, Frederick, Md.) were used to obtain contrast-enhanced dynamic 3D-micro-MR images. […] All images were obtained using the high-resolution wrist coil (GE) with a custom mouse holder using a clinical-grade 1.5-tesla superconductive magnet unit (Signa LX, General Electric Medical System, Milwaukee, Wis.). The mice were anesthetized with 1.15 mg of sodium pentobarbital (Dainabot, Osaka, Japan) and placed in the center of the coils. The fast spoiled gradient echo technique ([…] 19.4/4.2; flip angle 60°; scan time 1'40''; phase encoding steps 256×256; 3 number of excitations; slab thickness 12) with chemical fat-suppression technique and serial 3D data acquisition was used to acquire images every 2 min from 0 (immediately after injection) to 14 min after injection of the contrast agents for all mice studies. The coronal images for dynamic MRI were reconstructed with 2-mm section thickness without gap reconstruction. In addition, slice data was processed into 3D images with the maximum intensity […] (MIP) method (Advantage Windows, General Electric Medical System).
# COX-2 knock-out mice = assay: Contrast-enhanced dynamic 3D-micro-MRI of mice with chronic renal failure; format: in vivo; settings: 0.03 mmol Gd/kg i.v., images over 14 min post-injection
# Procedure: To determine if dendrimer-enhanced MR imaging according to the disclosure could detect chronic kidney failure and renal cysts, serial dynamic MR images of normal and 7 month old COX-2 knock-out mice (n=4) were obtained. The later mice have renal cysts and chronic renal failure. The contrast-enhanced dynamic MRI scans were obtained using the fast spoiled gradient echo technique (efgre3d; TR/TE 20.4/7.2; TI49; flip angle 30°; scan time 1′52″; phase encoding steps 512×256; 3 NEX; slab thickness 16) with fat-suppression technique following intravenous injection of 0.03 mmol Gd/kg G4-(1B4M-Gd)64. Serial multi-slice 3D data was obtained over a period of 14 min post-injection of the contrast agents for all mice studied. The width of the cortex and outer stripe of the outer medulla were measured. The combined width of the cortex and outer medulla measured by PAMAM-G4 enhanced MR imaging was much smaller in COX-2 knockout mice (left) than normal mice (right), and correlated with histological thickness (obtained at the time of sacrifice). […] These images show the thicker width of the cortex and outer medulla in the normal mice (FIG. 7a) in comparison to the COX-2 knockout mice (FIG. 7b). […] Thus, contrast-enhanced dynamic 3D-micro-MR imaging can be used to detect chronic renal failure and renal cysts.
molecule,measurement,setting,value
DAB-Am16-(Gd-1B4M)16 [DAB-G2],cleared from the body within 15 min after injection,[1],Greater than 60 % ID
same,"excretion from the body, rank among conjugates",[1],most rapidly excreted
DAB-Am-32-(Gd-1B4M)32 [DAB-G3],cleared from the body within 15 min after injection,[1],Greater than 60 % ID
same,"excretion from the body, rank among conjugates",[1],most rapidly excreted
DAB-Am-64-(Gd-1B4M)64 [DAB-G4],accumulation in the kidney vs PAMAM-G4D-(1B4M)64,[2],less
same,accumulation in the liver vs PAMAM-G4D-(1B4M)64,[2],significantly more
PAMAM-G2D-(Gd-1B4M)16,cleared from the body within 15 min after injection,[1],Greater than 60 % ID
same,"excretion from the body, rank among conjugates",[1],most rapidly excreted
"CNC[C@H](O)[C@@H](O)[C@H](O)[C@H](O)CO.CNC[C@H](O)[C@@H](O)[C@H](O)[C@H](O)CO.O=C([O-])CN(CCN(CC(=O)[O-])CC(=O)O)CCN(CC(=O)[O-])CC(=O)O.[Gd+3] [Gd-[DTPA]-dimeglumine, Gd-DTPA-dimeglumine]",visualization of the proximal straight tubule of the kidney,kidneys of mice; double dose 0.06 mmol Gd/kg,not visualized
same,bright white band at the outer stripe of the outer medulla,"kidneys of mice; high-resolution coronal images, dendrimers 0.03 mmol Gd/kg, Gd-[DTPA]-dimeglumine 0.03 or 0.06 mmol Gd/kg",not observed
same,MRI signal from the renal pelvis region,"kidneys of mice; higher doses, e.g. 0.1 mmol Gd/kg",loss of signal
"O=C([O-])CN(CCN(CC(=O)[O-])CC(=O)O)CCN(CC(=O)[O-])CC(=O)O.[153Gd+3] [Gd-DTPA, reference compound]",amount of 153Gd-labeled agent remaining in the blood,"[1]; nude mice, 15 min after injection, 0.02 mmol Gd/kg",2.7±0.1 % ID/g
PAMAM-G4D-(Gd-1B4M)64,injected dose excreted during the first two days following administration,[3],20 % ID
same,MRI signal intensity in the left ventricle of the heart,[4],highest
same,combined width of the cortex and outer medulla in COX-2 knockout mice vs normal mice by enhanced MR imaging,COX-2 knock-out mice,much smaller

# From patent US6852842B2, “Methods for functional kidney imaging using small dendrimer contrast agents” (The United States of America as represented by the …, priority 2002, dated 2005)
